Measured values published in the supplement of paper PMC11908140.

B1: library; numbered along this chain (parent)
chain: MRKPRAAVGSGHRKQAASQEGRQKHAKNNSQAKPSACDGLARQPEEVVLQASVSSYHLFRDVAEVTAFRGSLLSWYDQEKRDLPWRRRAEDEMDLDRRAYAVWVSEVMLQQTQVATVINYYTGWMQKWPTLQDLASASLEEVNQLWAGLGYYSRGRRLQEGARKVVEELGGHMPRTAETLQQLLPGVGRYTAGAIASIAFGQATGVVDGNVARVLCRVRAIGADPSSTLVSQQLWGLAQQLVDPARPGDFNQAAMELGATVCTPQRPLCSQCPVESLCRARQRVEQEQLLASGSLSGSPDVEECAPNTGQCHLCLPPSEPWDQTLGVVNFPRKASRKPPREESSATCVLEQPGALGAQILLVQRPNSGLLAGLWEFPSVTWEPSEQLQRKALLQELQRWAGPLPATHLRHLGEVVHTFSHIKLTYQVYGLALEGQTPVTTVPPGARWLTQEEFHTAAVSTAMKKVFRVYQGQQPGTCMGSKRSQVSSPCSRKKPRMGQQVLDNFFRSHISTDAHSLNSAAQ

Variants of: B1
Assay: 8OG:A repair function score (normalized; synonymous = 0, nonsense = -1) (normalized log-likelihood score); higher = more repair activity (WT-like)
Details: with 8OG:A DNA repair reporter (GFP) in HEK-293 MUTYH KO cells
Method: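 Saturation mutagenesis (NNN codon scan) of the MUTYH cDNA (521-aa nuclear isoform NM_001048174.1 / NP_001041639), stably expressed under doxycycline induction in HEK-293 MUTYH knockout cells. Cells were co-transfected with an 8OG:A-bearing GFP repair reporter plus mCherry and sorted 72 h later into GFP+ and GFP− bins, three replicates per tile. The Rosace log2 enrichment (GFP+ vs GFP−) was converted per tile to a normalized function score with synonymous variants centered at 0 and nonsense variants (codons 1-471) at -1; low-abundance variants were removed.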

Compared with A245H, A245N is higher in “8OG:A repair function score” value: -0.134 for the first, -0.0246 for the second.

Compared with R217G, A371H is higher in “8OG:A repair function score” value: -1.01 for the first, -0.324 for the second.

Going from E452Q to E452C, the “8OG:A repair function score” value rises from -0.335 to -0.0884.

Compared with D96Y, R336L is higher in “8OG:A repair function score” value: -0.308 for the first, -0.22 for the second.

Compared with R336I, T440N is lower in “8OG:A repair function score” value: -0.113 for the first, -0.313 for the second.

Going from Y121E to T112C, the “8OG:A repair function score” value rises from -1.92 to -0.907.

Compared with T112F, P352V is higher in “8OG:A repair function score” value: -1.17 for the first, -0.096 for the second.

Compared with L184G, D300P is higher in “8OG:A repair function score” value: -0.899 for the first, -0.0407 for the second.

First: P247Y
Second: L403F
The “8OG:A repair function score” value of the first is lower: -1.04 for the first, 0.0495 for the second.

Going from P299S to L73A, the “8OG:A repair function score” value falls from -0.0568 to -0.307.

Compared with D243L, D243E is higher in “8OG:A repair function score” value: -0.818 for the first, -0.293 for the second.

First: R364K
Second: R364Q
The “8OG:A repair function score” value of the first is higher: -0.245 for the first, -0.529 for the second.

Going from V65H to S54A, the “8OG:A repair function score” value rises from -0.0853 to 0.00533.

Compared with C311S, T263R is higher in “8OG:A repair function score” value: -0.588 for the first, -0.0312 for the second.

Going from G297E to G297T, the “8OG:A repair function score” value rises from -0.0194 to 0.0201.

First: T417L
Second: L289T
The “8OG:A repair function score” value of the first is lower: -0.0186 for the first, 0.0028 for the second.

Going from K127S to I195M, the “8OG:A repair function score” value falls from -0.0418 to -0.23.

Compared with I195H, W235V is higher in “8OG:A repair function score” value: -1.14 for the first, -0.467 for the second.

Compared with W381L, W381T is lower in “8OG:A repair function score” value: 0.07 for the first, 0.0347 for the second.

Going from E92T to N503S, the “8OG:A repair function score” value rises from -0.112 to -0.019.

Going from N503I to N503R, the “8OG:A repair function score” value rises from -0.0307 to -0.0109.

First: N503W
Second: E382Q
The “8OG:A repair function score” value of the first is lower: -0.011 for the first, 0.185 for the second.

Compared with S296T, V53G is lower in “8OG:A repair function score” value: -0.0451 for the first, -0.0541 for the second.

Going from V242I to P306A, the “8OG:A repair function score” value falls from 0.0144 to -0.0211.

Compared with W374H, L315W is higher in “8OG:A repair function score” value: -0.924 for the first, -0.187 for the second.

First: L315Q
Second: L295N
The “8OG:A repair function score” value of the first is lower: -0.193 for the first, -0.00265 for the second.

Going from L392I to Q271R, the “8OG:A repair function score” value falls from 0.0377 to 0.0206.

Compared with Q286S, P320E is lower in “8OG:A repair function score” value: -0.023 for the first, -0.11 for the second.

Compared with P320A, V438H is lower in “8OG:A repair function score” value: -0.0474 for the first, -0.17 for the second.

Compared with G193M, W146H is lower in “8OG:A repair function score” value: -0.156 for the first, -0.738 for the second.

Going from Q521Y to L241M, the “8OG:A repair function score” value falls from 0.025 to -0.522.

First: F504K
Second: G471C
The “8OG:A repair function score” value of the first is higher: -0.0046 for the first, -0.0198 for the second.

First: N251Q
Second: A194G
The “8OG:A repair function score” value of the first is lower: -0.901 for the first, -0.624 for the second.

Going from A194R to Q265K, the “8OG:A repair function score” value rises from -1.1 to -0.0319.

First: T191A
Second: R81N
The “8OG:A repair function score” value of the first is higher: -0.325 for the first, -0.365 for the second.

First: A101E
Second: A101R
The “8OG:A repair function score” value of the first is higher: -0.00955 for the first, -0.0207 for the second.

First: A101M
Second: L361I
The “8OG:A repair function score” value of the first is higher: -0.0323 for the first, -0.107 for the second.

Going from D94I to D94E, the “8OG:A repair function score” value falls from -0.0559 to -0.625.

Going from V211R to V211W, the “8OG:A repair function score” value rises from -1.02 to -0.594.

Compared with S226L, Q435C is higher in “8OG:A repair function score” value: -0.314 for the first, 0.293 for the second.

First: K337D
Second: K337Q
The “8OG:A repair function score” value of the first is lower: -0.151 for the first, -0.0917 for the second.

Going from E341R to A280M, the “8OG:A repair function score” value falls from 0.0117 to -0.582.

Going from F330R to T228Q, the “8OG:A repair function score” value rises from -0.958 to -0.217.

Compared with K422I, I509E is higher in “8OG:A repair function score” value: -0.297 for the first, 0.0145 for the second.

First: I509W
Second: R506K
The “8OG:A repair function score” value of the first is lower: -0.00561 for the first, 0.0152 for the second.

Going from R506I to A259R, the “8OG:A repair function score” value falls from 0.0189 to -0.0545.

Going from F418W to F418I, the “8OG:A repair function score” value rises from -0.969 to 0.255.

Going from T449D to R42H, the “8OG:A repair function score” value rises from -0.211 to 0.0289.

First: Q484N
Second: G309P
The “8OG:A repair function score” value of the first is higher: 0.0201 for the first, -0.0923 for the second.

Compared with Q232Y, V327F is lower in “8OG:A repair function score” value: -0.106 for the first, -0.513 for the second.

Going from L313I to L40K, the “8OG:A repair function score” value rises from -0.156 to 0.127.

First: G372T
Second: G372E
The “8OG:A repair function score” value of the first is higher: -0.157 for the first, -0.387 for the second.

First: G372F
Second: G372Q
The “8OG:A repair function score” value of the first is lower: -0.294 for the first, -0.291 for the second.

Compared with E413M, E413T is higher in “8OG:A repair function score” value: -0.375 for the first, 0.369 for the second.

Compared with T380K, D82M is lower in “8OG:A repair function score” value: -0.0484 for the first, -0.077 for the second.

First: R175A
Second: R175T
The “8OG:A repair function score” value of the first is lower: -0.0909 for the first, -0.00924 for the second.

Going from Y100V to Y152I, the “8OG:A repair function score” value rises from -1.41 to -0.496.

First: Q132G
Second: A177D
The “8OG:A repair function score” value of the first is higher: -0.076 for the first, -0.363 for the second.

First: A147M
Second: A147T
The “8OG:A repair function score” value of the first is higher: -0.0248 for the first, -0.154 for the second.

Compared with N119A, N119K is lower in “8OG:A repair function score” value: 0.121 for the first, -0.0285 for the second.

Going from S480Q to S480P, the “8OG:A repair function score” value rises from -0.00583 to -0.000393.

Going from L145N to S136G, the “8OG:A repair function score” value rises from 0.0178 to 0.03.

Going from S518Y to G201H, the “8OG:A repair function score” value falls from 0.0286 to 0.0082.

Compared with G201A, G201P is lower in “8OG:A repair function score” value: -0.14 for the first, -1.06 for the second.

Going from F68P to F68V, the “8OG:A repair function score” value rises from -1.6 to -0.0136.

First: F68N
Second: Q323V
The “8OG:A repair function score” value of the first is lower: -1.12 for the first, -0.00203 for the second.

Going from G434R to P129H, the “8OG:A repair function score” value falls from -0.0648 to -0.193.

Compared with P129R, L516Y is higher in “8OG:A repair function score” value: -0.477 for the first, 0.0181 for the second.

Compared with L355A, P338L is lower in “8OG:A repair function score” value: 0.00558 for the first, -0.061 for the second.

Compared with P338N, S71A is higher in “8OG:A repair function score” value: -0.066 for the first, -0.0236 for the second.

Compared with S71G, D91Y is higher in “8OG:A repair function score” value: -0.000985 for the first, 0.00276 for the second.

Going from D91F to Q394F, the “8OG:A repair function score” value falls from 0.00319 to -0.00248.

Going from S105Y to I421L, the “8OG:A repair function score” value rises from -1.24 to 0.0792.

Going from I421S to H57P, the “8OG:A repair function score” value falls from -0.59 to -0.793.

Going from H57E to H57A, the “8OG:A repair function score” value falls from -0.74 to -0.797.

Going from H57G to H57V, the “8OG:A repair function score” value falls from -0.607 to -0.613.

Going from A334Q to H416F, the “8OG:A repair function score” value falls from -0.103 to -0.448.

First: E90T
Second: P44I
The “8OG:A repair function score” value of the first is higher: -0.0178 for the first, -0.165 for the second.

Going from L387N to A461H, the “8OG:A repair function score” value falls from -0.167 to -0.545.

Compared with Q450T, V261P is lower in “8OG:A repair function score” value: 0.0482 for the first, -0.891 for the second.

Going from L411I to S294T, the “8OG:A repair function score” value falls from 0.148 to 0.00194.

Compared with L58P, L58F is higher in “8OG:A repair function score” value: -0.622 for the first, 0.00426 for the second.

Compared with L58E, A445W is lower in “8OG:A repair function score” value: 0.0056 for the first, -0.606 for the second.

With R495P the “8OG:A repair function score” value was 0.0276.
